Data taken from patent US20220372147A1 (UNIVERSIT T STUTTGART, published 2022).

Tests used:
[1] = molecular target: T1, HER3 on HER3-expressing cancer cells (LIM1215, BT474) (UniProt P21860 20-1342, limits assumed); assay: cell-based or functional assay
[2] = molecular target: T1, HER3 on HER3-expressing cancer cells …; assay: flow cytometry on HER3-expressing LIM1215 cells, PE anti-human Fc
[3] = molecular target: T1, HER3 on HER3-expressing cancer cells …; assay: flow cytometry on HER3-expressing BT474 cells, PE anti-human Fc
[4] = molecular target: T2, CD3 on CD3-expressing Jurkat cells (human, UniProt P07766 23-207); assay: flow cytometry on CD3-expressing Jurkat cells, PE anti-human Fc
T2 construct: whole, on cells

[5] = molecular target: T3, MET Fc fusion protein, extracellular domain (ECD) of MET (aa 25-787) (UniProt P08581 25-787); assay: ELISA, immobilized MET-Fc, anti-human Fab-HRP detection
T3 construct: range 25-787; not shown: Fc part

[6] = molecular target: T4, His-tagged HER3 protein, extracellular domain (ECD) of HER3 (aa 21-643) (UniProt P21860 21-643); assay: ELISA, immobilized HER3-His, anti-human Fc-HRP detection
T4 construct: range 21-643; also called HER3-His; not shown: His-tag

[7] = molecular target: T5, HER3-Fc fusion protein, extracellular domain (ECD) of HER3 (aa 21-643) fused to an Fc part (UniProt P21860 21-643); assay: ELISA, immobilized HER3-Fc, anti-His-HRP detection
T5 construct: range 21-643; not shown: Fc part

T3 sequence (P08581 25-787 limits assumed): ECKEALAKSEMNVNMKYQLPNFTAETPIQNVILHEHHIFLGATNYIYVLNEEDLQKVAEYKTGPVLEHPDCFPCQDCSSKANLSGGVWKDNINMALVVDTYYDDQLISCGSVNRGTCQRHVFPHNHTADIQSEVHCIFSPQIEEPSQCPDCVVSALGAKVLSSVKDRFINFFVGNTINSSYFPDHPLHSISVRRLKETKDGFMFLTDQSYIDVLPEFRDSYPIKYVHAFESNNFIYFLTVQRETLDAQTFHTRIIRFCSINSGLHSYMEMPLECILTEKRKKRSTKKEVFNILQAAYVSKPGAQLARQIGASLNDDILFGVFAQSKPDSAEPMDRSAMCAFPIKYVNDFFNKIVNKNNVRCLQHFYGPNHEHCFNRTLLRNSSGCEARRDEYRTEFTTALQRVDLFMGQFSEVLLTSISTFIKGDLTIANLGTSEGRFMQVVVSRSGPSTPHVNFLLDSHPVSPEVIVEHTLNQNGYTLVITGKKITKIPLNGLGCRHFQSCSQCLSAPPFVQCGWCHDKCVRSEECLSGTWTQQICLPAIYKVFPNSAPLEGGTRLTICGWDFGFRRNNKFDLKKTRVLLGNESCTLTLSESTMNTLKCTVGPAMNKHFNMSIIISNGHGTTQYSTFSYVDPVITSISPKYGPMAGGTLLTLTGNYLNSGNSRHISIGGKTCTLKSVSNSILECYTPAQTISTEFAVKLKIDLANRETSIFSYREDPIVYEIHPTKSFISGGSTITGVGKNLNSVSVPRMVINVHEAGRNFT
T2 sequence (P07766 23-207): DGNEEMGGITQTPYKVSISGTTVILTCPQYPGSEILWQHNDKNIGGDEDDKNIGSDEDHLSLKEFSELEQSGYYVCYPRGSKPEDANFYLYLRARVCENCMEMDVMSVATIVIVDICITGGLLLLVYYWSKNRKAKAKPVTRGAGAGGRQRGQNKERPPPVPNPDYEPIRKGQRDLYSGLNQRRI

B1: bispecific, trivalent eIg-Fab4 targeting HER3 and CD3 (bispecific antibody)
light 1: QAGLTQPPAVSVAPGQTASITCGRDNIGSRSVHWYQQKPGQAPVLVVYDDSDRPAGIPERFSGSNYENTATLTISRVEAGDEADYYCQVWGITSDHVVFGGGTKLTVLGQPKAAPSVTLFPPSSEELQANKATLVCLISDFYPGAVTVAWKADSSPVKAGVETTTPSKQSNNKYAASSYLSLTPEQWKSHRSYSCQVTHEGSTVEKTVAPTECS
heavy 1: not shown
light 2: not shown
heavy 2: QVQLQQSGPGLVKPSQTLSLTCAISGDSVSSNRAAWNWIRQSPSRGLEWLGRTYYRSKWYNDYAQSLKSRITINPDTPKNQFSLQLNSVTPEDTAVYYCARDGQLGLDALDIWGQGTMVTVSSASTKGPSVFPLAPSSKSTSGGTAALGCLVKDYFPEPVTVSWNSGALTSGVHTFPAVLQSSGLYSLSSVVTVPSSSLGTQTYICNVNHKPSNTKVDKKVEPKSCGGSGGGGSGGQVQLVQSGAEVKKPGSSVKVSCKASGGTFSGYTMNWVRQAPGQGLEWMGLINPYKGVSTYNGKFKDRVTITADKSTSTAYMELSSLRSEDTAVYYCARSGYYGDSDWYFDVWGQGTLVTVSSDFTPPTVKILQSSCDGGGHFPPTIQLLCLVSGYTPGTINITWLEDGQVMDVDLSTASTTQEGELASTQSELTLSQKHWLSDRTYTCQVTYQGHTFEDSTKKSADSNGTDKTHTCPPCPAPPVAGPSVFLFPPKPKDTLMISRTPEVTCVVVDVSHEDPEVKFNWYVDGVEVHNAKTKPREEQYNSTYRVVSVLTVLHQDWLNGKEYKCKVSNKGLPSSIEKTISKAKGQPREPQVCTLPPSRDELTKNQVSLSCAVKGFYPSDIAVEWESNGQPENNYKTTPPVLDSDGSFFLVSKLTVDKSRWQQGNVFSCSVMHEALHNHYTQKSLSLSPGK
[1]
  EC50 value in cell killing (PBMC-mediated cytotoxicity on BT-474 cells, crystal violet): 0.2 nM
  EC50 value in cell killing (PBMC-mediated cytotoxicity on LIM1215 cells, crystal violet): 0.1 nM
[2]
  EC50: 0.21 nM
[3]
  EC50: 0.6 nM
[4]
  EC50: 5.9 nM

B2: bispecific bivalent anti-cMET x anti-HER3 eIgG1 (EHD2 configuration HC1-LC2) (bispecific antibody)
light 1: QAGLTQPPAVSVAPGQTASITCGRDNIGSRSVHWYQQKPGQAPVLVVYDDSDRPAGIPERFSGSNYENTATLTISRVEAGDEADYYCQVWGITSDHVVFGGGTKLTVLGQPKAAPSVTLFPPSSEELQANKATLVCLISDFYPGAVTVAWKADSSPVKAGVETTTPSKQSNNKYAASSYLSLTPEQWKSHRSYSCQVTHEGSTVEKTVAPTECS
heavy 1: not shown
heavy 2: not shown
light 2: DIQMTQSPSSLSASVGDRVTITCKSSQSLLYTSSQKNYLAWYQQKPGKAPKLLIYWASTRESGVPSRFSGSGSGTDFTLTISSLQPEDFATYYCQQYYAYPWTFGQGTKVEIKRTDFTPPTVKILQSSCDGGGHFPPTIQLLCLVSGYTPGTINITWLEDGQVMDVDLSTASTTQEGELASTQSELTLSQKHWLSDRTYTCQVTYQGHTFEDSTKKSADSN
notes: Four different polypeptide chains, knob-into-hole Fc
[5]
  EC50: 3.8 nM
[6]
  EC50: 1 nM

B3: bispecific, trivalent eIg-Fab2 targeting HER3 and CD3 (bispecific antibody)
light 1: QAGLTQPPAVSVAPGQTASITCGRDNIGSRSVHWYQQKPGQAPVLVVYDDSDRPAGIPERFSGSNYENTATLTISRVEAGDEADYYCQVWGITSDHVVFGGGTKLTVLGQPKAAPSVTLFPPSSEELQANKATLVCLISDFYPGAVTVAWKADSSPVKAGVETTTPSKQSNNKYAASSYLSLTPEQWKSHRSYSCQVTHEGSTVEKTVAPTECS
light 2: not shown
heavy 1: not shown
heavy 2: not shown
[2]
  EC50: 1.3 nM
[3]
  EC50: 1.7 nM
[4]
  EC50: 0.2 nM

B4: bispecific bivalent anti-cMET x anti-HER3 eIgG2 (EHD2 configuration HC2-LC1) (bispecific antibody)
light 1: QAGLTQPPAVSVAPGQTASITCGRDNIGSRSVHWYQQKPGQAPVLVVYDDSDRPAGIPERFSGSNYENTATLTISRVEAGDEADYYCQVWGITSDHVVFGGGTKLTVLGQPKAAPSVTLFPPSSEELQANKATLVCLISDFYPGAVTVAWKADSSPVKAGVETTTPSKQSNNKYAASSYLSLTPEQWKSHRSYSCQVTHEGSTVEKTVAPTECS
heavy 1: not shown
heavy 2: not shown
light 2: DIQMTQSPSSLSASVGDRVTITCKSSQSLLYTSSQKNYLAWYQQKPGKAPKLLIYWASTRESGVPSRFSGSGSGTDFTLTISSLQPEDFATYYCQQYYAYPWTFGQGTKVEIKRTDFTPPTVKILQSSSDGGGHFPPTIQLLCLVSGYTPGTIQITWLEDGQVMDVDLSTASTTQEGELASTQSELTLSQKHWLSDRTYTCQVTYQGHTFEDSTKKCADSN
notes: as for B2
[5]
  EC50: 5.4 nM
[6]
  EC50: 1.4 nM

B5: Fv3-43-hetEHD2 eFab molecule 8 (C102T Fd; C14T,N39Q light chain) (Fab, V domains shown)
VH: QVQLQQSGPGLVKPSQTLSLTCAISGDSVSSNRAAWNWIRQSPSRGLEWLGRTYYRSKWYNDYAQSLKSRITINPDTPKNQFSLQLNSVTPEDTAVYYCARDGQLGLDALDIWGQGTMVTVSS
VL: QAGLTQPPAVSVAPGQTASITCGRDNIGSRSVHWYQQKPGQAPVLVVYDDSDRPAGIPERFSGSNYENTATLTISRVEAGDEADYYCQVWGITSDHVVFGGGTKLTVLD
notes: Monovalent anti-HER3 Fab-like molecule; His-tag on the Fd chain
[7]
  EC50: 6.2 nM

B6: bivalent and monospecific eIg molecule targeting HER3 (antibody, V domains shown)
VH: QVQLQQSGPGLVKPSQTLSLTCAISGDSVSSNRAAWNWIRQSPSRGLEWLGRTYYRSKWYNDYAQSLKSRITINPDTPKNQFSLQLNSVTPEDTAVYYCARDGQLGLDALDIWGQGTMVTVSS
VL: QAGLTQPPAVSVAPGQTASITCGRDNIGSRSVHWYQQKPGQAPVLVVYDDSDRPAGIPERFSGSNYENTATLTISRVEAGDEADYYCQVWGITSDHVVFGGGTKLTVLG
notes: Homodimerizing Fc; also called monospecific, bivalent eIg antibody; anti-HER3 bivalent eIg
[6]
  EC50: 1.4 nM

B7: Fv3-43-hetEHD2 eFab molecule 3 (C102N Fd; C14A,N39Q light chain) (Fab, V domains shown)
VH: QVQLQQSGPGLVKPSQTLSLTCAISGDSVSSNRAAWNWIRQSPSRGLEWLGRTYYRSKWYNDYAQSLKSRITINPDTPKNQFSLQLNSVTPEDTAVYYCARDGQLGLDALDIWGQGTMVTVSS
VL: QAGLTQPPAVSVAPGQTASITCGRDNIGSRSVHWYQQKPGQAPVLVVYDDSDRPAGIPERFSGSNYENTATLTISRVEAGDEADYYCQVWGITSDHVVFGGGTKLTVLD
notes: Monovalent anti-HER3 Fab-like molecule; His-tag on the Fd chain; also called C14A,N39Q:N39,C102N
[7]
  EC50: 4.8 nM

B8: Fv3-43-hetEHD2 eFab molecule 1 (C102A Fd; C14A,N39Q light chain) (Fab, V domains shown)
VH: QVQLQQSGPGLVKPSQTLSLTCAISGDSVSSNRAAWNWIRQSPSRGLEWLGRTYYRSKWYNDYAQSLKSRITINPDTPKNQFSLQLNSVTPEDTAVYYCARDGQLGLDALDIWGQGTMVTVSS
VL: QAGLTQPPAVSVAPGQTASITCGRDNIGSRSVHWYQQKPGQAPVLVVYDDSDRPAGIPERFSGSNYENTATLTISRVEAGDEADYYCQVWGITSDHVVFGGGTKLTVLD
notes: Monovalent anti-HER3 Fab-like molecule; His-tag on the Fd chain; also called C14A,N39Q:N39,C102A
[7]
  EC50: 12.1 nM

B9: Fv3-43-hetEHD2 eFab molecule 4 (C102T Fd; C14N,N39Q light chain) (Fab, V domains shown)
VH: QVQLQQSGPGLVKPSQTLSLTCAISGDSVSSNRAAWNWIRQSPSRGLEWLGRTYYRSKWYNDYAQSLKSRITINPDTPKNQFSLQLNSVTPEDTAVYYCARDGQLGLDALDIWGQGTMVTVSS
VL: QAGLTQPPAVSVAPGQTASITCGRDNIGSRSVHWYQQKPGQAPVLVVYDDSDRPAGIPERFSGSNYENTATLTISRVEAGDEADYYCQVWGITSDHVVFGGGTKLTVLD
notes: Monovalent anti-HER3 Fab-like molecule; His-tag on the Fd chain; also called C14N,N39Q:N39,C102T
[7]
  EC50: 3 nM

B10: Fv3-43-hetEHD2 eFab molecule 6 (C102N Fd; C14T,N39Q light chain) (Fab, V domains shown)
VH: QVQLQQSGPGLVKPSQTLSLTCAISGDSVSSNRAAWNWIRQSPSRGLEWLGRTYYRSKWYNDYAQSLKSRITINPDTPKNQFSLQLNSVTPEDTAVYYCARDGQLGLDALDIWGQGTMVTVSS
VL: QAGLTQPPAVSVAPGQTASITCGRDNIGSRSVHWYQQKPGQAPVLVVYDDSDRPAGIPERFSGSNYENTATLTISRVEAGDEADYYCQVWGITSDHVVFGGGTKLTVLD
notes: Monovalent anti-HER3 Fab-like molecule; His-tag on the Fd chain; also called C14T,N39Q:N39,C102N
[7]
  EC50: 4.1 nM

B11: Fv3-43-hetEHD2 eFab molecule 9 (C102S Fd; C14S,N39Q light chain) (Fab, V domains shown)
VH: QVQLQQSGPGLVKPSQTLSLTCAISGDSVSSNRAAWNWIRQSPSRGLEWLGRTYYRSKWYNDYAQSLKSRITINPDTPKNQFSLQLNSVTPEDTAVYYCARDGQLGLDALDIWGQGTMVTVSS
VL: QAGLTQPPAVSVAPGQTASITCGRDNIGSRSVHWYQQKPGQAPVLVVYDDSDRPAGIPERFSGSNYENTATLTISRVEAGDEADYYCQVWGITSDHVVFGGGTKLTVLD
notes: N-glycan only on the Fd EHD2-2 domain; also called originally used eFab (C14S,N39Q:N39,C102S)
[7]
  EC50: 3.7 nM

B12: Fv3-43-hetEHD2 eFab molecule 2 (C102W Fd; C14T,N39Q light chain) (Fab, V domains shown)
VH: QVQLQQSGPGLVKPSQTLSLTCAISGDSVSSNRAAWNWIRQSPSRGLEWLGRTYYRSKWYNDYAQSLKSRITINPDTPKNQFSLQLNSVTPEDTAVYYCARDGQLGLDALDIWGQGTMVTVSS
VL: QAGLTQPPAVSVAPGQTASITCGRDNIGSRSVHWYQQKPGQAPVLVVYDDSDRPAGIPERFSGSNYENTATLTISRVEAGDEADYYCQVWGITSDHVVFGGGTKLTVLD
notes: as for B5
[7]
  EC50: 7.3 nM

B13: Fv3-43-hetEHD2 eFab molecule 5 (C102A Fd; C14W,N39Q light chain) (Fab, V domains shown)
VH: QVQLQQSGPGLVKPSQTLSLTCAISGDSVSSNRAAWNWIRQSPSRGLEWLGRTYYRSKWYNDYAQSLKSRITINPDTPKNQFSLQLNSVTPEDTAVYYCARDGQLGLDALDIWGQGTMVTVSS
VL: QAGLTQPPAVSVAPGQTASITCGRDNIGSRSVHWYQQKPGQAPVLVVYDDSDRPAGIPERFSGSNYENTATLTISRVEAGDEADYYCQVWGITSDHVVFGGGTKLTVLD
notes: as for B5
[7]
  EC50: 11 nM

B14: Fv3-43-hetEHD2 eFab molecule 7 (C102T Fd; C14W,N39Q light chain) (Fab, V domains shown)
VH: QVQLQQSGPGLVKPSQTLSLTCAISGDSVSSNRAAWNWIRQSPSRGLEWLGRTYYRSKWYNDYAQSLKSRITINPDTPKNQFSLQLNSVTPEDTAVYYCARDGQLGLDALDIWGQGTMVTVSS
VL: QAGLTQPPAVSVAPGQTASITCGRDNIGSRSVHWYQQKPGQAPVLVVYDDSDRPAGIPERFSGSNYENTATLTISRVEAGDEADYYCQVWGITSDHVVFGGGTKLTVLD
notes: as for B5
[7]
  EC50: 7.1 nM
